In US20020035246A1 (VLAAMS INTERUNIVERSITAIR INSTITUUT VOOR BIOTECHNOLOGIE VZW, published 2002):

T1: SIP1 (TH1) prey protein (GAL4TAD fused to the 626 aa polypeptide encoded by th1 cDNA) (mouse, UniProt Q9R0G7 315-940, limits assumed)
T1 sequence: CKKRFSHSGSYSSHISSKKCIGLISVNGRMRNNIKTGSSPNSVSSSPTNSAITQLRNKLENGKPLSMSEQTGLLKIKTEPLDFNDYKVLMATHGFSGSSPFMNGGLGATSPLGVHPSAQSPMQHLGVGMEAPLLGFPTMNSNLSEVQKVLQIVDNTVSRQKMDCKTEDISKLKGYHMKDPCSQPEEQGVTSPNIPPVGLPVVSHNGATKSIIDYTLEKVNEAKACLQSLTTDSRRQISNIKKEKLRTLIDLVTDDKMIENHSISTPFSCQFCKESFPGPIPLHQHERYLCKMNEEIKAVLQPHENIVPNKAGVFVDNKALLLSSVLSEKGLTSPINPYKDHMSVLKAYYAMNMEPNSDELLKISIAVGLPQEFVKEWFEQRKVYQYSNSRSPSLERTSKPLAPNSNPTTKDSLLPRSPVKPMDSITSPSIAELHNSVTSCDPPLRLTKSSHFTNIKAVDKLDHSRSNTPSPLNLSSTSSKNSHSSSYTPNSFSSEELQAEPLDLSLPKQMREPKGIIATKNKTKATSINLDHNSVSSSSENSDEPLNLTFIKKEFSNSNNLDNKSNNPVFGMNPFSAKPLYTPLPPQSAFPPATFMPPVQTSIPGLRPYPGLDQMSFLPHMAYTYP

T2: TH72 prey protein (GAL4TAD fused in-frame to a partial SMAD4 starting at amino acid 252) (mouse, UniProt P97471 252-551, limits assumed)
T2 construct: Only the start (aa 252) is stated; the C-terminal end of the clone is not; also called TH72 (DPC4 or SMAD4); partial DPC-4 (SMAD4)
T2 sequence (looked up): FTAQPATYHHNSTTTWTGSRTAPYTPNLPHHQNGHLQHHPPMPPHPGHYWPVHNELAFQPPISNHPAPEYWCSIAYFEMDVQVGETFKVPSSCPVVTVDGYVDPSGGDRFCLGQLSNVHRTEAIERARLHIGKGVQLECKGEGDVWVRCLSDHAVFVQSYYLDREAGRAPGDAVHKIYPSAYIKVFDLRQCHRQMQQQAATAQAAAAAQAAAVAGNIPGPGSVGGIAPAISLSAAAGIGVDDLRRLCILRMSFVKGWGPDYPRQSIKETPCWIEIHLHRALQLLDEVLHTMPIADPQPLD

B1: Lamin (pLAM; Clontech) (other, UniProt P02545 66-230, looked up)
chain: SEEVVSREVSGIKAAYEAELGDARKTLDSVAKERARLQLELSKVREEFKELKARNTKKEGDLIAAQARLKDLEALLNSKEAALSTALSEKRTLEGELHDLRGQVAKLEAALGEAKKQLQDEMLRRVDAENRLQTMKEELDFQKNIYSEELRETKRRHETRLVEID
notes: Bought control bait plasmid

Assays:
Assay in all cases: yeast two-hybrid
[1] = molecular target: T1, SIP1 (TH1) prey protein (GAL4TAD fused …)
[2] = molecular target: T2, TH72 prey protein (GAL4TAD fused …)
Lamin (pLAM; Clontech) = molecular target: B1
[3] = molecular target: T3, Empty bait vector pGBT9 (GAL-4 DBD alone) (UniProt P04386 1-147)
T3 construct: Negative control bait; also called empty bait (i.e., GAL-4 DBD alone)
T3 sequence (P04386 1-147 limits assumed): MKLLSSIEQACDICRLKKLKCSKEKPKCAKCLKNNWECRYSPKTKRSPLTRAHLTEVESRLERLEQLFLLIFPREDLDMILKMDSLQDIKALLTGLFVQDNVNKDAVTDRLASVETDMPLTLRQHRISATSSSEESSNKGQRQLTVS

binding result [1] | binding result [2] | binding result (Lamin (pLAM; Clontech)) | binding result [3] | Binder
no binding | no binding |  |  | B1
 |  | no binding | no binding | SIP7 prey protein (th74; partial open reading frame fused to the GAL4 transactivating domain in pACT2) (other, not shown: small tags and cut ends) TEPVRTDRRTEDQTATKERLLPPSGPLPRTPAPAPVTAPDTARCAVLAARHGRALSPGPRALAPSAQRCCPASGRAAETPASVGAGALRVGPAQPSQARQPTMLLLSPRSALVSVYCPQIFLLLSTAVTTLSSVVALGANIICNKIPGLAPRQRAICQSRPDAIIVIGEGAQMGIDECQHQFRFGRWNCSALGEKTVFGQELRVGSREAAFTYAITAAGVAHAVTAACSQGNLSNCGCDREKQGYYNQAEGWKWGGCSADVRYGIDFSRRFVDAREIKKNAGS
